The data set in a line: yeast display, Sf9 membrane polyspecificity reagent, FACS + sequencing; frameworks hold sequencing errors. The method in brief:
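Galactose-induced (36–48 hours) yeast carrying a synthetic nanobody display library were exposed to 10% biotinylated, detergent-solubilized Sf9 membrane reagent at 4 °C for 1 hour. FACS followed streptavidin microbead enrichment, using low and high (top ~1%) gates for expression (anti-HA) and reagent binding (streptavidin). Colony PCR, MiSeq 2 × 250 sequencing and CDR-length filtering followed. Labels for polyreactivity reflect the gate of origin.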
Turning to “QVQLVESGGGLVQAGGSLRLSCAASGRTFKNYAMGWYRQSPGKERELVAVISRRGSSTYYADSVKGRFTISRDNAKNTVYLQMNSLKPEDTAVYYSAARLGVPYPYIAYDYWGQGTQVTVSS”, the “polyreactivity (PSR sort gate)” value was “high polyreactivity”. As for “QVQLLESGGGLVKAGGSLRLTCADSGRTLYRYAMGWYRQAPGKERELVAAINQSGGRTYYADSVKGRFTISRDNAKNTVYLQMNSLKPDDTAVYYCNTASSRAFLTHGRYGRSDYWGQGTQVTVSS”, the “polyreactivity (PSR sort gate)” value is “high polyreactivity”.

Take “QVQLVESGGGLVQAGVSLRLSCAASGRTFGYYTMGWSRQAPGKERELVAGISSAGSTNYADSVKGRFTISRDNAKNTVYFQMNSLKPADTAVYDCAARTYKVIQNNSWETYYYWGQGTQVTVSS”: the “polyreactivity (PSR sort gate)” value was “high polyreactivity”. As for “QVQLVESGGGLVQAGGSLRLSCAASGSIFTAYAMGWYRQAPGKERELVAAIRWNDGRTYYADSVKGRFTISRDNAKNTVYLQINSLKPEDTAVYYCAARYTDVTPGFAYYYWGQGTQVTVSS”, the “polyreactivity (PSR sort gate)” value is “high polyreactivity”. Take “QVQLVESGGGLVQAGGSLRLSCAASGSTLNRNVMGWYRQAPGKERELVAVITYGVGSTYYADSVKGRFTISRDNAKNTVYLQMNSLKPEDTAVYYCNKDPLVFDYWGQGTQVTVSS”: the “polyreactivity (PSR sort gate)” value is recorded as “low polyreactivity”. With “QVQLVESGGGLVQAGGSLRLSCAASGRTFIGNVMGWYRQAPGKERELVAAISKSGTRTYYPDSVKGRFTISRDNAKNTVYLQMNSLKPEYTAVYYCAKDHYPRTDDFGYWGQGTQVTVSS”, the “polyreactivity (PSR sort gate)” value was “high polyreactivity”. Consider “QVQLVESGGGLVQAGGSLRLSCAASGSIFYGYAMGWYRQAPGKERELVAVITDGGGSTYYADSVKGRFTISRDNAMNTVYLQMNSLKPEDTAVYYCNRVFPPTDYEFDSWGQGTQLTVSS”, for which the “polyreactivity (PSR sort gate)” value is given as “low polyreactivity”. In the case of “QVQLVESGGGLVQAGGSLRLSCAASGSIFSRYAMGWYRQAPGKERELVAAITWRGGSTYYADSVKGRFTISRDNAKNTVYLQMNSLKPEDTAVYYCAKDRWTYAFRVGYGYWGQGTQVTVSS”, the “polyreactivity (PSR sort gate)” value was “high polyreactivity”.

As for “QVQLVESGGGLVQAGGSLRLSCDASGLILGINSMGWYRQAPGKERELVAAISSSGGRTSYADSVKGRFTISRDNAKNTVYLQMNSLKPEDTAVYYCAKRRTTYSHYDYWGQGTQVTVSS”, the “polyreactivity (PSR sort gate)” value is “low polyreactivity”. Take “QVQLVESGGGLVQAGGSLRLSCAASGSTFRIYAMGWYRQAPGKERELVASISSGGRTYYADSVKGRFTISRDNAKNTVYLQMNSLKPEDTAVYYCNARHYYIWWRSPTRTAMNYWGQGTQVTVSS”: the “polyreactivity (PSR sort gate)” value was “high polyreactivity”. In the case of “QVQLHQSGGGLVQAGGTLRLSCAPSGNISVTYNMGWYRQAPGKEREFVAGNSTGATTNYADSVTGRFTISRDNAKNSVYLQMNSLKPEDTAVYYCAAHIYRQDHFYYWGQGTQVTVSS”, the “polyreactivity (PSR sort gate)” value is listed as “low polyreactivity”. With “QVQLVESGGGLVQAGGSLRLSCAASGSTFSSYAMGWYRQAPGKERELVAAINWSGTRTYYADSVKGRFTISRDNAKNTVYLQMNSLKPEDTAVYYCAAPGFGETADYDDWGQGTQVTVSS”, the “polyreactivity (PSR sort gate)” value is on record as “low polyreactivity”. The value for “QVQLVESGGGLVQAGGSLRLSCAASGSTFRRNAMGWYRQAPGKERELVAAITSGGSTYYADSVKGRFTISRDNAKNTVYLQMNSLKPEDTAVYYCNRLYRWKKPLDYDYWGQGTQVTVSS” was “high polyreactivity”; that for “QVQLVESGGGLVQAGGSLRLSCAASGPTFYEYAMGWYRQAPGKERELVARITRGGSTYYADSVKGRFTISRDNAKNTVYLQMNSLKPEDTAVYYCAAPYKDLYPYYEYDYWGHGTQVTVSS” was “low polyreactivity”; that for “QVQLVESGGGLVQAGGSLRLSCAASGSTIDGNAMGWYRQAPGKERELVAAITSGGSTNYADSVKGRFTISRDNAKNTVYLQMNSLKPEDTAVYYCAADTVSFSILYDYWGQGTQVTVSS” was “low polyreactivity”. As to “QVQLVESGGGLVQAGGSLRLSCAASGRTLRGYAMGWYRKAPGKEREFVAAISSRGGSTYYADSVKGRFTISRDNAKNTVYLQMNSLKPEDTAVYYCAALRPVFATSHARDYWGQGTQVTVSS”, the “polyreactivity (PSR sort gate)” value is “high polyreactivity”. Regarding “QVQLVESGGGLVQAGGSLRLSCAASGFTFYYNAMGWYRQAPGKERELVASITRSGGRTYYADSVKGRFTISRDNAKNTVYLQMNSLKPEDTAVYYCARRYPGGYYWGQGTQVTVSS”, the “polyreactivity (PSR sort gate)” value is on record as “high polyreactivity”.

As to “QVQLVESGGGLVQAGGSLRLICAASGFTLYAYAMGWYRQAPGKERELVAAISDSGGDTYYADSVKGRFTISRDNAKNTVYLQMNSLKPEDTAVYYCAALYNHWWEYDYWGQGTQVTVSS”, the “polyreactivity (PSR sort gate)” value is recorded as “low polyreactivity”. Regarding “QVQLVESGGGLVQAGGSLRLSCAASGRIFHYNTMGWYRQAPGKERELVAAITSSGGSTYYADSVKGRFTISRDNAKNTVYLQMNSLKPEDTAVYYCNAVFYRYGYKVDYWGQGTQVTVSS”, the “polyreactivity (PSR sort gate)” value was “high polyreactivity”. As for “QVQLVESGGGLVQAGGSLRLSCAASGNTFPTYAMGWYRQAPGKERELVAAISRRGGSTYYADSVKGRFTISRDNAKNTVYLQMNSLKPEDTAVYYCARPRRSVNVYKYIYNYWGQGTQVTVSS”, the “polyreactivity (PSR sort gate)” value is given as “high polyreactivity”. Take “QVQLVESGGGLVKAGGSLRLSCAASGFTFYTYTMGWYRQAPGKERELVAVISRSGGSTYYADSVKGRFTISRDNAKNTVYLQMNSLKPEDTAVYYCNAGYWRFIDSYDYWGQGTQVTVSS”: the “polyreactivity (PSR sort gate)” value was “high polyreactivity”. The value for “QVQLVESGGGLVQAGGSLRLSCAASGRIFVPYAMGWYRQAPGKERELVAAISRSSPTYYADSVKGRFTISRDNAKNSVYLQMNSLKQEDTAGYYCAAAYYATTPKADYHFRGYEYWGQGTQVTVSS” was “high polyreactivity”.

“QVHLVESGGGLVQAGGSLRLSFAASGRIFYYNAMGWYRQAHGKERELVAAIRGGCSTNYADSVKGRFTISRDNAKNTVYLQMNSLKPEDTAVYYCNTAVWGPHRYDYWGQGTQVTVSS”: the “polyreactivity (PSR sort gate)” value is recorded as “low polyreactivity”. On to “QVQLVESCGGLDQAGGSLRLSCAASGRIFYAYAMGWYRQARGKERELVAAITSSGGRTYYADSVKGRFTISRDNAKNTVYLQMNSLKPEDTAVYYCAAYDYWGQGTQVTVSS”, for which the “polyreactivity (PSR sort gate)” value is given as “low polyreactivity”. The value for “QVQLVESGGGLVQAGGSLRLSCAASGFILYYYAMGWYRQAPGIERELVAAISWSGDSTYYADSVKGRFTISRDNAKNTVYLQMNSLKPEDTAVYYCAATGQLTHRYYWGQGTQVTVSS” was “low polyreactivity”.

In the case of “QVQLVESGRGLVQAGGSLRLSCAASGFTFSYYAKGWYRQAPGKEREFVAAISWSGGSTYYADSVKGRFTLSRDNAKNTVYLQMNSLKPEDTAVYNSAARSTGGSPGRRFTRGYDYWGQGTQVTVSS”, the “polyreactivity (PSR sort gate)” value was “high polyreactivity”. In the case of “QVQLEESGGGLVQAGGRLRLRCAASATYRYYGMGWYRQQPGNERELVAAISRSGSRTYYADSVKGRFTISRDNAKNTVYLQMNSLKPEESAFYYCAASSVYYGYDYWGQGTQVTVSS”, the “polyreactivity (PSR sort gate)” value was “high polyreactivity”. Turning to “QVQLVESGGGLVQAGGSLRLSCAASGSILDTNAMGWYRQAPGKERELVARIDIDGSTNYADSVKGRFTISRDNAKNTVYLQMNSLKPEDTAVYYCNKDHSSYGASGYDYWGQGTQVTVSS”, the “polyreactivity (PSR sort gate)” value is “low polyreactivity”. “QVQLVESGGGLVQAGGSLRLSCAASGRTFSGNAMGWYRQAPGKERELVATITRRGGSTYYADSVKGRFTISRDNAKNTVYLQMNSLKPEDNAVYYCAARRVVNGGQGYESWGQGTQVTVSS”: the “polyreactivity (PSR sort gate)” value is listed as “high polyreactivity”. For “QVQLVESGGGLVQAGGSLRLSCAASGSIFAYNAMGWYRQAPGKERELVAAITDSGGSTFYADSVKGRFTISRDNAKTTVYLQMNSQKPEDTAVYYCATSGDRLVWGQCTQVTVSS” the value was “low polyreactivity”; for “QVQLVESGGGLVQAGGSLRLSCAASGRTFIDYGMGWYRQAPGKERELVAAISSGGSTYYADSVKGRFTISRDNAKNTVYLQMNSLKPEDTAVYYCAAPGFKYDVYAGYVLNGGGDYWGQGTQVTVSS”, “low polyreactivity”; for “QVQLVESGGGLVQAGGSRRLSCAASGRFFSAYAMGWYRQAPGKDRELVAAITWSGANTDYADSVKGRFTISRDNANNTVYLQMNSLKPEDTAVYYCNASVGRDSAYDYWGQGTQVTVSS”, “low polyreactivity”. The value for “QVQLVESGGGLVQAGGSLRLSCAASGSIVAWYGMGWYRQAPGKERELVAAISTAGSTNYADSVKGRFTISRDNAKNTVYLQMYSLKPEDTAVHYCAKKSSWYYPERFDYWGQGTQVTVSS” was “low polyreactivity”; that for “QVQLVESGGGLVQAGGSLRLSCAASGRTFTVNAIGWYRQAPGKERELVAAISGRSGRTSYADSVKGRFTISRDNAKNTVYLQMNSLKPEDTAVYYCNASGGYSTGSRYDYWGQGTQVTVSS” was “high polyreactivity”.

In the case of “QLQLVESGGGLVQAGGSLRLSCAATGRIFRFYALGWYRQATGKERELVADISRRGGSTYFADSVKGRFTISRDNAKNTVYVQMTSLKPEDTAVYYCNARWYRTGSTYHEDYWGQGTQVTVSS”, the “polyreactivity (PSR sort gate)” value is “high polyreactivity”. With “QVQLVESGGGLVQAGVSLRLSCAASGRTFRSNAMGWYRQSPGKERELVAAITASGGNTYYADSVKGRFTISRDNAKNTVYLQMNSLKPEDTAVYYCAAVSRYNYGTNPYYYWGQGTQVTVSS”, the “polyreactivity (PSR sort gate)” value is recorded as “high polyreactivity”.

For “QVQLVESGGGLVQAGGSLRLSCAASGYTFGKYVMGWYRQAPGKERELVAAISISGSGTYYADSVKGRFTISRDNAKNTVYLQMNSLKPEDTAVYYCAARGYGFPELDYWGQGTQVTLSS”, the “polyreactivity (PSR sort gate)” value is listed as “high polyreactivity”. For the sequence “QVQLVESGGGLVQAGGSLRLSCAASGSIFITYAMGWYRQAPGKERELVAAIRDSGDRTYYADSVKGRFTISRDNAQNTVYLQMNSLKPEDTAVYHCNARWQEPLKYDYWGQGTQVTVSS”, the “polyreactivity (PSR sort gate)” value was “low polyreactivity”. For “QVQLVESGGGLVQAGGSLRLSCAASGRTFRRYAMGWYRQAPGKERELVAAISSSSGTTYYADSVKGRFTISRDNEKNTDYLQMNSLKPEDTAVYYCAAYSRYTTRQYDYWGQGTQVTVSS”, the “polyreactivity (PSR sort gate)” value was “high polyreactivity”. For “QVQRVESAAGLVQAGGSLRLSCAASGFIIVYYSMGWYRQAPGKERELVAAISRRGGSTYYADSVKGRFTISRDNAKNTVYLQMNSLKPEDTAVYYCNAVNVLAPSRGRRYDYWGQGTQVTVSS” the value was “high polyreactivity”.

Take “QVQLVESGGGLVQAGGSLRLSCDASGSIFGPYARGWYRQEPGKERELVAAITWTGGRTYYADSVKGRFTISRDNAKNTVYLQMNSLQPEDTAVYYFAADYSPSTWDLYYTLYYYWGQGTQVTVSS”: the “polyreactivity (PSR sort gate)” value is on record as “low polyreactivity”.

(Values after the nanobody polyreactivity screen of Harvey et al. (2022).)
